For data set [1], the system named is aloesone. The experiment in a line: Aloesin production from aloesone by GtCGT and variants in E. coli BL21(DE3), flask culture. The class given is cell-based. The protocol:
Also, in LC-MS/MS for aloesin analysis, MS (Agilent 6550 iFunnel Q-TOF LC/MS System) coupled with ultra HPLC (UHPLC; 1290 Infinity II LC System; Agilent) was used. Here, an Eclipse-plus C18 column was used, and 0.1% formic acid was used as buffer A, and acetonitrile to which 0.1% formic acid was added was used as buffer B.
Thereafter, in order to test the production of aloesin, the pCDF-GtCGT or pCDF-GtCGT^V93Q/Y193F plasmid was transformed into the BL21(DE3) strain containing pWAS-anti-pabA, pRSF-RpALS, and pBBR1-zwf plasmids, followed by flask culture.
Similarly to the test for increased production of aloesone, RpALS was additionally introduced to increase aloesin production. To this end, pCDF-RpALS-GtCGT^V93Q/Y193F was constructed instead of introducing pCDF-GtCGT^V93Q/Y193F. Specifically, RpALS was amplified from pCDF-RpALS using pCDFDuet F and pCDFDuet R primers, and inserted into the NcoI and BamHI sites of the pCA plasmid through Gibson assembly. Thereafter, four plasmids, namely pRSF-RpALS, pCDF-RpALS-GtCGT^V93Q/Y193F, pWAS-anti-pabA, and pBBR1-zwf, were transformed into E. coli BL21(DE3), which was named an ALS strain.
(§1) Mutagenesis for a specific sequence was performed in the same manner as in Example 2. Here, plasmids containing gene mutants were constructed using pCDF-RpALS-GtCGT^V93Q/Y193F as a template and using primer pairs shown in Table 11 below. The plasmids thus constructed were transformed into the BL21 (DE3) strain along with three plasmids, namely pWAS-anti-pabA, pRSF-RpALS, and pBBR1-zwf, followed by flask culture under the same conditions as in Example 3 using the strains thus constructed. The concentration of aloesin produced was measured in an MRM mode of the HPLC Triple Quadrupole Mass Spectrometer (LCMS-8050, Shimadzu) of the KAIST Biocore Center.
as §1, with “13” for “11”

The nature of data set [2]: KM and Vmax of purified GtCGT enzymes, FK converted into dcII, UDP-Glo Glycosyltransferase Assay. The following applies: substrate FK. The class given is biochemical, Gentiana triflora.
Description: The purified enzyme was buffer-exchanged with an enzyme storage solution (50 mM HEPES, 20% glycerol, pH 7.5) using Amicon Ultra-15 Centrifugal Filters (regenerated cellulose, 50,000 NMWL; Merck), and in order to calculate KM and Vmax values, FK was converted into dcII using the purified enzyme. Here, a UDP-Glo Glycosyltransferase Assay Kit (Promega) was used to determine the extent of reaction. Since this kit enables measurement of free UDP generated as a reaction byproduct by luminescence, 200 μL of an enzyme reaction solution containing 0.1 μM enzyme and various concentrations of FK (50 mM HEPES, 0.1 mM UDP-glucose, 5 mM MgCl2, pH 7.5) was allowed to react at 25° C. for 1 hour, 25 μL thereof was taken out, and the amount of emitted light was measured using the kit.
Data set [3] relates to naringenin. The experiment in a line: Conversion of naringenin to naringenin-6-C-glucoside by intracellularly expressed enzyme, flask culture. The class given is cell-based, E. coli. The method, then:
(§2) As such, 70 μM luteolin, 0.5 mM naringenin, or 185.2 μM apigenin was co-administered, followed by culture for an additional 36 hours. The amounts of substrate and product were analyzed by LC-MS. Flask culture was carried out in a 250 mL baffled flask containing 50 mL of R/2 medium (supplemented with 3 g/L yeast extract and 20 g/L glucose), and culture was performed at 30° C. and 200 rpm.

For data set [4], the system named is FK. The experiment in a line: dcII production from FK by C-glycosyltransferase candidates and GtCGT mutants in FK-producing E. coli, flask culture. The class given is cell-based. The following applies: flask culture. The protocol:
Flask culture was carried out under the following conditions. Colonies were seeded into 10 mL of LB medium supplemented with appropriate concentrations of antibiotics, followed by culture overnight at 37° C. The culture fluid thus prepared was passaged into a 250 mL baffled flask containing 50 mL of R/2 medium supplemented with 3 g/L yeast extract and 20 g/L glucose (with 0.45 g/L ascorbic acid if necessary), followed by culture at 30° C. and 200 rpm. The composition of R/2 medium (pH 6.8) was as follows (per liter): 2 g of (NH4)2HPO4, 6.75 g of KH2PO4, 0.85 g of citric acid, 0.7 g of MgSO4·7H2O, and 5 ml of trace metal solution (TMS) [10 g of FeSO4·7H2O, 2.25 g of ZnSO4·7H2O, 1 g of CuSO4·5H2O, 0.5 g of MnSO4·5H2O, 0.23 g of Na2B4O7·10H2O, 2 g of CaCl2·2H2O, and 0.1 g of (NH4)6Mo7O24 per liter of 5 M HCl]. When OD600 of the culture fluid reached 0.6-0.8, 1 mM isopropyl β-D-1-thiogalactopyranoside (IPTG) was added to induce exogenous gene expression, followed by culture for 48 hours.
After culture, production analysis was performed under the following conditions. After flask culture, 50 mL of the culture fluid was centrifuged at 4,000 g for 30 minutes, and then the supernatant was desalted and concentrated. Here, Oasis HLB cartridges (Water) were used. The supernatant was concentrated 1-fold for FK, 30-fold for KA, 45-fold for dell, and 200-fold for carminic acid. The concentrated sample was re-dissolved in an appropriate volume of DMSO and impurities were then removed therefrom using a 0.22 μm PTFE filter. The prepared sample was analyzed by MS (LC/MSD VL; Agilent) coupled with HPLC (1100 series; Agilent). An Eclipse XDB-C18 column was used, 0.1% formic acid was used as buffer A, and methanol was used as buffer B. Analysis was performed in an ESI negative mode. For more accurate analysis of carminic acid, LC-MS/MS was performed using an HPLC Triple Quadrupole Mass Spectrometer (LCMS-8050, Shimadzu) (MRM mode).
Flask culture started by seeding colonies from LB agar plates into test tubes containing 10 mL of LB. As such, an appropriate concentration of antibiotics was added, followed by culture overnight at 37° C. at 220 rpm. 1 mL of the seed culture thus prepared was inoculated into a 250 mL baffled flask containing 50 mL of R/2 medium (supplemented with 3 g/L yeast extract and 20 g/L glucose), followed by culture at 30° C. and 200 rpm. The composition of R/2 medium was as follows (pH 6.8, per 1 L): 2 g of (NH4)2HPO4, 6.75 g of KH2PO4, 0.85 g of citric acid, 0.8 g of MgSO4·7H2O, and 5 ml of trace metal solution (TMS). The composition of TMS was as follows (based on 0.1 M HCl, per 1 L): 10 g of FeSO4·7H2O, 2.25 g of ZnSO4·7H2O, 1 g of CuSO4·5H2O, 0.58 g of MnSO4·5H2O, 0.02 g of Na2B4O7·10H2O, 2 g of CaCl2·2H2O, and 0.1 g of (NH4)6Mo7O24·4H2O. When OD600 of the culture fluid reached 0.6-0.8, 0.5 mM IPTG was added to induce exogenous enzyme expression, followed by culture for 48 hours. In all experiments for producing flavokermesic acid, kermesic acid, dcII, and carminic acid, 0.45 g/L of ascorbic acid was further added.
The production of carminic acid (CA) from FK was performed by two biosynthesis pathways, both of which require monooxygenase and C-glycosyltransferase. FK may be oxidized into KA or may be C-glycosylated into dcII. […] In order for the enzyme to have activity, however, it must be glycosylated, and since it also has a transmembrane helix and a signal peptide, successful expression in cells such as E. coli is considered difficult.
For the enzymes selected above, pCDF-DcCGT, pCDF-MiCGT, pCDF-SfCGT, pCDF-EnCGT, pCDF-OsCGT, pCDF-FeCGT, pCDF-GmCGT, pCDF-AvCGT, pCDF-AvCGT, pCDF-ZmCGT, and pCDF-GtCGT were constructed, and all genes except for the iroB gene amplified from genomic DNA of E. coli Nissle using the iroB_gib_F primer and the iroB_gib_R primer were artificially synthesized and inserted into the NdeI site of the pCDFDuet-1 plasmid using Gibson assembly. […]

The test system of data set [5] is luteolin. The experiment in a line: Conversion of luteolin to isoorientin by intracellularly expressed enzyme, flask culture. The class given is cell-based, E. coli. The method, then: as §2
For data set [6], the system named is apigenin. The experiment in a line: Conversion of apigenin to vitexin by intracellularly expressed enzyme, flask culture. The class given is cell-based, E. coli. The method, then:
as §2

B1: GtCGT^V93Q/Y193F: GtCGT variant with substitutions V93Q and Y193F (SEQ ID NO: 61) (protein)
chain: MGSLTNNDNLHIFLVCFIGQGVVNPMLRLGKAFASKGLLVTLSAPEIVGTEIRKANNLNDDQPIKVGSGMIRFEFFDDGWESVNGSKPFDVWQYINHLDQTGRQKLPIMLKKHEETGTPVSCLILNPLVPWVADVADSLQIPCATLWVQSCASFSAYYHYHHGLVPFPTESEPEIDVQLPGMPLLKYDEVPDFLHPRTPYPFFGTNILGQFKNLSKNFCILMDTFYELEHEIIDNMCKLCPIKPIGPLFKIPKDPSSNGITGNFMKVDDCKEWLDSRPTSTVVYVSVGSVVYLKQEQVTEMAYGILNSEVSFLWVLRPPSKRIGTEPHVLPEEFWEKAGDRGKVVQWSPQEQVLAHPATVGFLTHCGWNSTQEAISSGVPVITFPQFGDQVTNAKFLVEEFKVGVRLGRGELENRIITRDEVERALREITSGPKAEEVKENALKWKKKAEETVAKGGYSERNLVGFIEEVARKTGTK
modifications: GtCGT V93Q/Y193F (GtUF6CGT1V93Q/Y193F) variant
In the case of B1, in data set [1] (BL21(DE3) with pWAS-anti-pabA, pRSF-RpALS, pBBR1-zwf and pCDF-GtCGT variant plasmid), the aloesin production was found to be 0.06 µg/L. Besides, the “aloesin amount compared with strain containing GtCGT” value in data set [1] (flask culture) was “greater amount of aloesin than the strain containing GtCGT”. In addition, in data set [2], the “Vmax/KM value increase compared to GtCGT” value amounted to 46.8%. This molecule had a naringenin-6-C-glucoside produced in data set [3] (from 0.5 mM naringenin, 36 hours, with pBBR1-galU-pgm-ndk) of 51.6 µM. In addition, the results for the conversion rate in data set [3] (naringenin to naringenin-6-C-glucoside), in data set [5] (luteolin to isoorientin) and in data set [6] (apigenin to vitexin) were 10.3%, 27.9% and 8.1%, respectively. Moreover, the “dcII production increase compared to wild-type GtCGT” value in data set [4] (FK strain) worked out at 5.3 fold. For the same molecule, the dcII production in data set [4] (FK-producing E. coli strain) is given as 0.74 mg CA eq/L. In data set [5] (from 70 μM luteolin, 36 hours, with pBBR1-galU-pgm-ndk), this molecule yielded an isoorientin produced of 27.9 µM. In data set [6] (from 185.2 μM apigenin, 36 hours, with pBBR1-galU-pgm-ndk), this molecule yielded a vitexin produced of 15.0 µM.

(Values after patent US20240102068A1, “C-GLYCOSYLTRANSFERASE VARIANTS AND USE THEREOF” (KOREA ADVANCED INSTITUTE OF SCIENCE AND TECHNOLOGY, priority 2021, published 2024).)
